Experimental data: paper PMC5148066

B1: mouse XCL1 (ligand)
chain: VGTEVLEESSCVNLQTQRLPVQKIKTYIIWEGAMRAVIFVTKRGLKICADPEAKWVKAAIKTVDGRASTRKNMAETVPTGAQRSTSTAITLTG
B2: mouse CXCL1 (ligand)
chain: APIANELRCQCLQTMAGIHLKNIQSLKVLPSGPHCTQTEVIATLKNGREACLDPEAPLVQKIVQKMLKGVPK
B3: mouse CCL19 (ligand)
chain: GANDAEDCCLSVTQRPIPGNIVKAFRYLLNEDGCRVPAVVFTTLRGYQLCAPPDQPWVDRIIRRLKKSSAKNKGNSTRRSPVS
B4: mouse CXCL4 (ligand)
chain: VTSAGPEESDGDLSCVCVKTISSGIHLKHITSLEVIKAGRHCAVPQLIATLKNGRKICLDRQAPLYKKVIKKILES
B5: mouse CXCL2 (ligand)
chain: AVVASELRCQCLKTLPRVDFKNIQSLSVTPPGPHCAQTEVIATLKGGQKVCLDPEAPLVQKIIQKILNKGKAN
B6: mouse CCL3 (ligand)
chain: APYGADTPTACCFSYSRKIPRQFIVDYFETSSLCSQPGVIFLTKRNRQICADSKETWVQEYITDLELNA

Target: Bovine papular stomatitis virus chemokine-binding protein (Bovine papular stomatitis virus)
Experiment: SPR; BPSV-CBP immobilised on a CM5 chip (~500 RU, amine coupling, 10 mM sodium acetate pH 4.5); serial dilutions of mouse chemokines in HBS-EP pH 7.4 flowed in triplicate, 3 min association, 10 min dissociation, 25°C, Biacore X100; global fit, 1:1 binding model

**Q.** Which results are given for “mouse CCL21 (from UniProt P84444 24-133) (ligand)”?
**A.** Kd: 0.385 nM; koff: 0.00296 s⁻¹; kon: 7.68e+06 M⁻¹ s⁻¹

**Q.** “mouse CCL2 (from UniProt P10148 24-148) (ligand)” was tested. Which Kd did it give?
**A.** 0.186 nM

**Q.** And the koff?
**A.** 0.00022 s⁻¹

**Q.** What about the kon of the same molecule?
**A.** 1.18e+06 M⁻¹ s⁻¹

Target: Bovine papular stomatitis virus chemokine-binding protein (Bovine papular stomatitis virus (strain V660 named for the sequence analysis))
Experiment: SEC-MALS; purified BPSV-CBP in solution, three concentrations (2, 1, 0.05 mg/ml)

**Q.** “Bovine papular stomatitis virus chemokine-binding protein (natural protein)” was tested. Which stoichiometry N did it give?
**A.** 2

Target: Bovine papular stomatitis virus chemokine-binding protein (Bovine papular stomatitis virus)
Experiment: SPR; BPSV-CBP immobilised on a CM5 chip (~500 RU, amine coupling, 10 mM sodium acetate pH 4.5); serial dilutions of mouse chemokines in HBS-EP pH 7.4 flowed in triplicate, 3 min association, 10 min dissociation, 25°C, Biacore X100; global fit, 1:1 binding model
Remark: another data set of the same source

**Q.** What does the source list for B1?
**A.** Kd: 1.36 nM; koff: 0.00135 s⁻¹; kon: 990000 M⁻¹ s⁻¹

**Q.** Which results are given for B2?
**A.** Kd: 4.33 nM; koff: 0.00316 s⁻¹; kon: 730000 M⁻¹ s⁻¹

**Q.** Which results are given for B3?
**A.** Kd: 0.00146 nM; kon: 1.37e+07 M⁻¹ s⁻¹

**Q.** With B4 as the molecule, how does the Kd read?
**A.** 2.32 nM

**Q.** And the koff?
**A.** 0.00234 s⁻¹

**Q.** What about the kon of the same molecule?
**A.** 1.01e+06 M⁻¹ s⁻¹

**Q.** With B5 as the molecule, how does the koff read?
**A.** 0.00056 s⁻¹

**Q.** And the kon?
**A.** 770000 M⁻¹ s⁻¹

**Q.** B6 was tested. Which Kd did it give?
**A.** 0.13 nM

**Q.** And the koff?
**A.** 0.00023 s⁻¹

**Q.** And the kon?
**A.** 1.76e+06 M⁻¹ s⁻¹

Target: Bovine papular stomatitis virus chemokine-binding protein (Bovine papular stomatitis virus (strain V660 named for the sequence analysis))
Experiment: SPR; BPSV-CBP immobilised on a CM5 chip (~500 RU) by amine coupling; serial dilutions of mouse chemokines in HBS-EP (20 mM HEPES, 150 mM NaCl, 3.4 mM EDTA, 0.005% Polysorbate 20, pH 7.4) run in triplicate, 3 min association, 10 min dissociation; 25°C, Biacore X100; global fit with a 1:1 binding model

**Q.** For B1, which Kd is on record?
**A.** 1.4 nM

**Q.** What about the koff of the same molecule?
**A.** 0.0014 s⁻¹

**Q.** And the kon?
**A.** 1e+06 M⁻¹ s⁻¹

**Q.** For B2, which Kd is on record?
**A.** 4.3 nM

**Q.** For B3, which koff is on record?
**A.** 2e-05 s⁻¹

**Q.** Which Kd does the source give for B4 here?
**A.** 2.3 nM

**Q.** For B5, which Kd is on record?
**A.** 0.725 nM

**Q.** And the koff?
**A.** 0.0006 s⁻¹
